# A protein production outcome set (Wang et al. 2014)
# Assay: label from the status in PepcDB records
row,Sequence,protein production
1,MKLNISAQSLNYTKYDNVIPSRDAILGLFDKVKSYLSYEQISHSSGLNDEPEKDALKKRLRAMERDGQLIFTRRKGYKRVDQSSLVTGKISIHVDGFGFLTYDDNEKDLFLPKHQLSHVFDGDIILVLKGHTQHQGRSNHRFIKIVERKTTHIVGLLKRKGSKLYLLPENSKLTQTIYVTPNELIAKNVGKLVHCKINTYPDYRQPTTVEVNEVLGRPGEAGIEVKLALRRHGINDKWDKDVLDAASAFGSQVEEKDKTSRVDYRDLPFVTIDGDDAKDFDDAVYGYQMDNGQWKLFVAIADVSHYVKPNDHLDLEAQSRATSVYFPGCVVPMLPESLSNGLCSLNPNEDRLVMVCEMTFDDEGNMLDSEFSEGIIHSHARLTYDDANRIIMQSSAKTTYQSNNPKNNIAQYLVNLHRLYLNLSGQRKVRGAIDFDTQELAFKLNNKKKIASIVPVVRNDAHRMIEEFMLCANVATAQFLELNKIPSLYRVHSGPQMKKLTSLRMLLAEKGLTLAGGDKPTSHDYNALLDQVRDLDECDIIRTLLLRSQSQAEYSPKNLGHFGLAYDAYAHFTSPIRRYPDLLIHRAIRAKLREKTTGKLRSLLMKLKPIRQLAGISNSYPYDTKEIEQLSVHCSHQSRQADEVSREVESALKCHYMKPFIGRNFMGSVSGVTHFGVFVELEENRIEGLIPLSSFQNGDFEFDAIKQKISSQTTTFTLGTQVNIIVKEIDSKQRKIIFNFA,failed
2,MKLQTTIQHEPKDGSGFDRGLREFFEYRDTGVNEATGGMFGAHVIRAIPGKEAKPTWHTHTVGFQLFYVLRGWVEFEYEDIGAVMLEAGGSAFQPPGVRHRELRHSDDLEVLEIVSPAGFATSVVDLEEARKP,not failed
3,MKLRKRRLCAATGVVLGALTALAALPPAAVASPHPGGHPPTARRALPLGPAGLPERRTTTTLQPGVTLTRIVRGNAEDPALHWTVEVSIPGGDTSPDPDAPPTALKDRASADELAAELRRDGFEARVEEVTTPATADYRGGTLGWRVRIGTFDSQTAATAERTRLRAAGYSGSAVYTGWDGAATDRGPWHVDVLTIDPRTFRGTLDASYGPDLENRETTSALAASAAATAAVNAGFFVLDPRAGAPGDPAGVGVYDGRLLSEPVAGRPALVVHDDGRRTEIARLTWQGRIATRAASLPLNGVNRVPGLIRNCGGSAGDTPTSLPLHDVTCTNPDELVAFTPDYGGRTPGGEGMEAVLDAHERVVELRSPRGGTIPRGGSSVQATGERVADLTATARVGERLRVSATLLDDRGRRMSTSPGTDIVNAGPELVRDGRVHVTPATDGMVHPGDPSWYYGWVHKRNPRTVAGVDAAGRTVLVTADGRSTDSLGLSIGESAEVARSLGLRDAVNLDGGGSTTMVAEGAVLNSPSDAAGERPVGDALLILPHRHRTRS,failed
4,MKLSDFIKTEDFKKEKHVPVIEAPEKVKKDEKVQIVVTVGKEIPHPNTTEHHIRWIKVFFQPDGDPYVYEVGRYEFNAHGESVQGPNIGAVYTEPTVTTVVKLNRSGTIIALSYCNIHGLWESSQKITVEE,not failed
5,MKLSMQMLKKSSLIPSDLTDTLLLVGSGWDDYSFKTSFTVMHFGPDAKKTELGTTKIGYKDQQHGWTSEKFSTKNISLSDDFFSLGQDVDFYRKLQGGLSADAALAVLQALKDVIADPLRLEDVKNEQVFRESLMRNVSWSVIRDQFKRVLAGKPELTSFHFSYQTNGDEQRAGVDVSFKVTPHSLPSTNVHVLIGRNGVGKTTILNDMVETILSDTTGRPHCGKFLIYDSLGSEPMPTDYFSSVVSVSFSAFDPFLFPADQPDRSKGVAYFYVGMQSPGEGPGKRPPKTTEALTEDFITSLESCFSQESKRQRWVAAIKRLESDSNFEDMDLAHLNELPTDEAIVKAHRIFSRMSSGHSIVLLTLTKLVEAVEEKTLVLMDEPESHLHPPLLSAFTRAISDLLQDRNGVAIIATHSPVVVQEAPGSCVWKLTRLRAEGRADRPERETFGENAGVLTREIFGLEVNKSGYHEVLQEAVNRGGTFESILADYQEQLGFEAQAILRKMVASRRES,failed
6,MKLSSEKLPKNPFSLSQYAAKQQKFFQWKKEKPDYYLHANLVDTALQFLKERIRRGDAMAYFLRGQLYFEEGWYEEALAQFEEIQEKDHQAIYQLGVMYYDGLGTIANAEKGVNYMRKILDSSCPQTMHLKFAAAYNLGRAYFEGKGVKRSDEEAERLWLLAADNGNPKASVKAQSILGLFYSMKEPKELEKAFFWHSEACGNGSLESQGALGLMYFYGQGIRQDTDAALHCLREAAERGNVYAQGTLVEYYYKMKFFTKCVSFSKRIADYDEVHDIPMIAHVTDCLPEFIIKGMAMAAFYHGRCLQLGLGIMKDEESAKHYYSKACRLNPTLADELHSLLIHQRI,failed
7,MKLTHSFIKQQARLGLNFFRYLLARMNHDRVNVNAGYLAYITLLSMVPMLTVLLSILSSFALFANAGEVIQDFVITHFVPAAGEVVKTALIEFVANTGKMTAVGGAFLFVAAIMLISNIDKNLNYIWRVQQKRRAVFSFSMYWMILTLGPILVGASIAATSYITSLKILDNEALSGVYNLFLRWLPFVLSYCAFVGLYLLVPNKKVHWQHAMLGALIAAILFELSKKGFAAYITQFPSYQLIYGALAAIPILFVWVYLCWLIVLVGAEVTAALGEREHWSDSQDMLHFAPLPKNEKE,not failed
8,MKLVVCSESDTAGQNIKDNLLTFADFEEKDVGEFKLYLSDEFYIAETKERLIYADHIDEKLAKYIDFEEILFASRHSSKDGRKIFTVHVSGNVGTADFGGKPYSLAKPSPQTMKNYVLALRERLDRKPEFEFTMEVTHHGPSEISKPSAFYEIGSTEEEWKDREAAEVVAEAMLDAIRAEKMDWNVAVGVGGTHYAPRQTEIMLTTTFTFGHNFAKYTFEHLTAEFLVKAVKLSEAEYIIIDEKSVNSAVKKIVNEAAEVAGVEVLKSKKVKKDFRLV,not failed
9,MKLWENGTFYQMTAEGEQVSAVLTKNGQIHAVGEVADLKKQYATEIDETIDLEGKVVFPGFVDAHIHLLWYGQALERLNLNQTTTKKEALALEHHHHHH,not failed
10,MKMDTGALTFQQKIYWLVKQIPLGRVATYGQIAALCGWPRHGRYVGYALYRVAPNSDIPWHRVVNAQGKISYAPQRRGTDELQRWRLAAEGIIFTAGDRINLRRYQWQPPATVYQQLIWPEGAATDSAKAKVG,failed
11,MKMDYKEQSHIIPTYKRFDIVLEKGQGVYLFDDKAKKYLDFSSGIGVCALGYNHAKFNAKIKAQVDKLLHTSNLYYNENIAAAAKNLAKASALERVFFTNSGTESIEGAMKTARKYAFNKGVKGGQFIAFKHSFHGRTLGALSLTANEKYQKPFKPLISGVKFAKYNDISSVEKLVNEKTCAIILESVQGEGGINPANKDFYKALRKLCDEKDILLIADEIQCGMGRSGKFFAYEHAQILPDIMTSAKALGCGLSVGAFVINQKVASNSLEAGDHGSTYGGNPLVCAGVNAVFEIFKEEKILENVNKLTPYLEQSLDELINEFDFCKKRKGLGFMQGLSLDKSVKVAKVIQKCQENALLLISCGENDLRFLPPLILQKEHIDEMSEKLRKALKSF,not failed
12,MKMISTIQKKETVMVAPIPAKRGRKPAVATAPATGQVQSLTRGLKLLEWIAESNGSVALTELAQQAGLPNSTTHRLLTTMQQQGFVRQVGELGHWAIGAHAFMVGSSFLQSRNLLAIVHPILRNLMEESGETVNMAVLDQSDHEAIIIDQVQCTHLMRMSAPIGGKLPMHASGAGKAFLAQLSEEQVTKLLHRKGLHAYTHATLVSPVHLKEDLAQTRKRGYSFDDEEHALGLRCLAACIFDEHREPFAAISISGPISRITDDRVTEFGAMVIKAAKEVTLAYGGMR,not failed
13,MKNFFNHIELKFANLLSKISFMLLMVVGLLMVYFLFREVYNLVLLAFLSESEVHYYDILESILSFFIFFEFLTLIITSLRNKGHVSLIFLLSLGITSLIRLLLTYHERLVGVLLIASAILILIIGVFVLKKFVFPNDDTADYF,failed
14,MKNFLETIEDMILIINREGRLLYANTAVPKKLGYPHEELMSMHILTITSAGKMAEGEKILAELFAGKKESLPLSLEKKEGTSIPAKARIWQGKWHNEPCLFAIIKDLSKEERASSPPFLEHHHHHH,not failed
15,MKNFVVKTIANAGALAVAVWLLDKITLTGDSTGKKIGTLIVVALVFGLVNFLVKPIVKVLTFPLFILTLGLITLVVNALMLLLTSWLADKLDLSFHVEGFWTAVVGGLIISVVSWALNVVLPDDKD,failed
16,MKNIVAGILAHVDSGKTTLSEAMLYQTGRIRKLGRVDHQDTYLDTDSQEKDRGITIFSKQAELTYEDMHIALLDTPGHVDFGTEMERTLQVLDYAVLVINGMDGVQSHTETLWKLLERYEIPVFIFVNKMDMTGYDREYLMDNIRHRLSDGCVDFLCEDAGEHIAMCDENMLERFLETGENREDDIAKAVADRKLFPCYFGSALKNDGVAELLDGMNRYVTEPRRTDEFGARVFKIGRDDKGERLTYMKITGGTLRLKDVLTLTGRQGEETLEKVNQIRVYSGAKYDMVDHVTAGCVCAVPGLVNTYGRQGIGACPDGELPSLEPVLSYKVMYPTDVDAVTMVSKLRQLEEEDPLLQVQWNEAAGEIYIKVMGQVQLEVVAQMVRDRFGIAITYGQGRITYKETIAAPVMGVGHFEPLRHYAEVHLLLEPMENGSGMCFDSICSEDVLDKNWQRLILTHLQEREFRGVLTGSPITDMKITITAGRAHQKHTEGGDFRQATYRAVRQGLMMAESVLLEPVYAFKIEVPQEYAGRVLADIVKMSGSMDGQEIAGETTVITGHAPVYTMREYYSELTAFSRGTGRLQVDIDGYQPCHNTEEVLAERHYDPELDRFNPSSSVFCAHGAGYLVDWYDVYENMHVKEDPGFEISGQLGYTEDGDVTDIPVNRPGKSVSDMSITDEELSEIFARTFGGDYKDKDVALNGRFRRTTSEYKVNGTSSRGSDGTAGGGASAGTAGDSSNSGYRGNGQYNKSQSRDRQPGNGPVVGSRPADRGIATPGAFKRRKSGEDYVIVDGYNVIFAWDTLRELSEHNIDSARGKLMDILSNYQGYMNCHLIVVFDGYKVKDNKGERFPYDDIEVVYTKEGETADAHIEKLTHELARKHKVTVVTSDGLEQIVTMGQGAIRMSSRDFKLEVERVNEHLRENYLKND,failed
17,MKNLLKRYVSIKNIIKVIELDFFANLKLRYYKLAMKLFKIEDEKFDEILLKAGMNAVSSTYLPVVFLTSIILGLIIFIIFLIVFNIFYAIFGLIGGIFIVILIGVLYPYVLAEEKAKSIDENLPYAFAFISALSSANIPVVEIFTSLSKEDIYGGMSKEAKEIVKDTKVFNYDIITTFLRRARITPSKKLSSVYYNIVASLIVGAEMKNIFHEIYERLMEDRKLELFEAIEKVEILSEFYVIACGMIPLFVVMTVPVASSISAILQTASLFGDPKLLPLTFYLWVPIASIIFMGLVYGILPKDFKLNVSLLDVLKEFDEPEIEGIKMKFKWKPVHFITLFFWMLSIISFMLFFIRKSIFKFHGTDFLMFGILFLILPFILTSYWHFIIENQKERYYPIFLNDLTMAVRSGMDIIRAMQVCARTNYGPLTKIVKKMAIQMSWGRPVNEVFADLERTEKSLIAKRIASILKECAVSGGDVKDILTSVTVHAYKLSEMKREISARQFIYVVVIYLSFFLYIGTSYIMVHSLLPTLLKNIHGLSVEFYKNYLFQGILIYSIFSGASLGILTERSIIAGIKHILLMLIVGYMLFKFYIGG,failed
18,MKNRALLLIDFQKGIESPTQQLYRLPAVLDKVNQRIAVYRQHHAPIIFVQHEETELPFGSDSWQLFEKLDTQPTDFFIRKTHANAFYQTNLNDLLTEQAVQTLEIAGVQTEFCVDTTIRMAHGLGYTCLMTPKTTSTLDNGHLTAAQIIQHHEAIWAGRFLTFLSL,not failed
19,MKNTPIERNVIDETINEFQIVDFSKATIREVKAIASKAEAVSGVEFIKMEMGVPGLPASAVGVKAEIEALQNGIASLYPDINGLPELKKEASDFIKAFINVDLSPEGCVPVTGSMQGTFASFLTCSQCDEKKDTILFIDPGFPVQKQQLVVMGQKYETFDVYDYRGDKLKEKLESYLRKGNISAIIYSNPNNPSWICLKDEELRIIGELATQYDVIVLEDLAYFAMDFRQDLSTPYQAPFQPSVAHYTDNYVLLISGSKAFSYAGQRIGVSCISDKLYHRSYPGLTKRYGGGTFGTVFIHRVLYALSSGTSHSAQYAMAAMLKAANEGQYNFLSEVKVYGDRAQKLKEIFLRHGFYLVYDNDLGDPIADGFYFTIGYPGMTSGELAKELMYYGVSAISLVTTGSHQEGLRACTSFIKDHQYAQLDERMKLFAEHHPIA,not failed
